From US20250076311A1 (Chugai, published 2025)

Experiments:
[1] = biological target: T1, human FcγRIIb extracellular domain, His-tagged (human, UniProt P31994 43-217); assay: SPR, 25C, antibody captured, FcγR as analyte
T1 construct: also called FcgRIIb (human)
T1 sequence: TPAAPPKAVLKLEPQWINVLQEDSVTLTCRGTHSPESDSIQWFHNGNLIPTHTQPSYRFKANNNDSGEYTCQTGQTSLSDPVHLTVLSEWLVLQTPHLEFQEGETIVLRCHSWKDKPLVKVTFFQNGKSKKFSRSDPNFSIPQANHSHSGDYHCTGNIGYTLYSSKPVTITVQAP
Method: (§1) The kinetic analysis of interactions between these antibodies and FcγR was carried out using BIACORE® T200 or BIACORE® 4000 (GE Healthcare). HBS-EP+ (GE Healthcare) was used as the running buffer, and the measurement temperature was set to 25° C. […] After the measurement, the antibody captured on the chip was washed off by allowing reaction with 10 mM glycine-HCl, pH1.5 and 25 mM NaOH so that the chip was regenerated and used repeatedly. The sensorgrams obtained as measurement results were analyzed by the 1:1 Langmuir binding model using the BIACORE® Evaluation Software to calculate the binding rate constant ka (L/mol/s) and dissociation rate constant kd (1/s), and the dissociation constant KD (mol/L) was calculated from these values. […] Regarding such interactions, KD values were calculated using the following 1:1 binding model described in BIACORE® T100 Software Handbook BR1006-48 Edition AE.

[2] = biological target: T2, cynomolgus monkey FcγRIIa2 extracellular domain with C-terminal His-tag (cynomolgus monkey); assay: SPR (Biacore), KD of SG1 / KD of variant
T2 construct: also called cyno FcgRIIa2; cynoFcγRIIa2
T2 chain: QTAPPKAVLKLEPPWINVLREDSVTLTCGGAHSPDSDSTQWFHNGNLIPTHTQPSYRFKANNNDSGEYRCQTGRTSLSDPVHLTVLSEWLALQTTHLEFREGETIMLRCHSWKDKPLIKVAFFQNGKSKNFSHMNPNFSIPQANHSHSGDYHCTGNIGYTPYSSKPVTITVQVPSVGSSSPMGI

[3] = biological target: T3, cynomolgus monkey FcγRIIa3 extracellular domain with C-terminal His-tag (cynomolgus monkey); assay: SPR (Biacore), KD of SG1 / KD of variant
T3 construct: also called cyno FcgRIIa3; cynoFcγRIIa3
T3 chain: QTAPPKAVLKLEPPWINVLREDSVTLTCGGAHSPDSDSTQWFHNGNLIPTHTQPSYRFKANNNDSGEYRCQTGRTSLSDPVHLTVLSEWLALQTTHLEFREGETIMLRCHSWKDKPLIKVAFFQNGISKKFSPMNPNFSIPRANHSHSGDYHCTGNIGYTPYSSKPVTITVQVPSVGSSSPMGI

[4] = biological target: T4, cynomolgus monkey FcγRIIIaS extracellular domain with C-terminal His-tag (cynomolgus monkey, UniProt Q8SPW2 21-206 at identity 1.00)); assay: SPR (Biacore), antibody captured, FcgR analyte
T4 construct: also called cyno FcgRIIIaS; cynoFcγRIIIaS
T4 chain: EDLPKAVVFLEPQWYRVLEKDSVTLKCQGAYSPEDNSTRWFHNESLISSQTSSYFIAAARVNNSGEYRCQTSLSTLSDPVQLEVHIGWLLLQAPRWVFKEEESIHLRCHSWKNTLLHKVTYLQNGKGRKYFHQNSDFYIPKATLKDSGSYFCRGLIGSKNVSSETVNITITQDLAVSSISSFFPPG
Method: as §1

B1: MS103205H795-SG1012/M103202L889-SK1 (antibody, human IgG1, kappa)
heavy: QVTLKESGPVLVKPTETLTLTCTVSGIDLSHDDISWVRQAPGKGLEWVGIISYAGSTYYASWAKGRLTISKDTSKNQVVLTMTNMDPVDTATYYCARGVPAYSHGGDLWGQGTLVTVSSASTKGPSVFPLAPSSKSTSGGTAALGCLVKDYFPEPVTVSWNSGALTSGVHTFPAVLQSSGLYSLSSVVTVPSSSLGTQTYICNVNHKPSNTKVDKKVEPKSCDKTHTCPPCPAPELLNGPSVFLFPPKPKDTLMISRTPEVTCVVVDVSEEDPEVKFNWYVDGVEVHNAKTKPREEQYNSTYRVVSVLTVLHQDWLNGKEYKCKVSNKALPKPIEKTISKAKGQPREPQVYTLPPSREEMTKNQVSLTCLVKGFYPSDIAVEWESNGQPENNYKTTPMVLDSDGSFFLYSKLTVDKSRWQQGNVFSCSVMHEALHAHYTQKSLSLSP
light: DIVMTQSPATLSLSPGERATLSCTSSQSVYHANWLSWFQQKPGQPPKLLIYWASTLAYGVPSRFSGSGSGTDFTLTISSLQPEDAATYYCAGGYGGGRYAFGQGTKVEIKRTVAAPSVFIFPPSDEQLKSGTASVVCLLNNFYPREAKVQWKVDNALQSGNSQESVTEQDSKDSTYSLSSTLTLSKADYEKHKVYACEVTHQGLSSPVTKSFNRGEC
notes: also called MS1032LO06-SG1012
fold enhanced affinity compared to SG1 [1]: 10 fold

B2: MS103240H795-SG1074/M103202L1045-SK1 (antibody, name in EU numbering)
heavy: QVQLVESGGGLVQPGGSLRLSCAVSGIDLSHDDISWVRQAPGKGLEWVSIISYAGSTYYASWAKGRLTISKDTSKNQVVLTMTNMDPVDTATYYCARGVPAYSHGGDLWGQGTLVTVSSASTKGPSVFPLAPSSKSTSGGTAALGCLVKDYFPEPVTVSWNSGALTSGVHTFPAVLQSSGLYSLSSVVTVPSSSLGTQTYICNVNHKPSNTKVDKKVEPKSCDKTHTCPPCPAPELLNGPSVFLFPPKPKDTLMISRTPEVTCVVVDVSDEDPEVKFNWYVDGVEVHNAKTKPREELYNSTYRVVSVLTVLHRDWLNGKEYKCKVSNTALPKPIEKTISKAKGQRREPQVYTLPPSREEMTKNQVSLTCLVKGFYPSDIAVEWESNGQPENNYKTTPPVLDSDGSFFLYSKLTVDKSRWQQGNVFSCSVLHEALHAHTTRKELSLSP
light: DIVMTQSPATLSLSPGERATLSCTTSQSVYHENWLSWFQQKPGQPPKLLIYWASTLAYGVPSRFSGSGSGTDFTLTISSLQPEDAATYYCAGGYGGGRYAFGQGTKVEIKRTVAAPSVFIFPPSDEQLKSGTASVVCLLNNFYPREAKVQWKVDNALQSGNSQESVTEQDSKDSTYSLSSTLTLSKADYEKHKVYACEVTHQGLSSPVTKSFNRGEC
notes: also called MS1032LO19-SG1074
fold enhanced affinity compared to SG1 [1]: 10 fold

B3: MS103205H795-SG1016/M103202L889-SK1 (antibody, human IgG1, kappa)
heavy: QVTLKESGPVLVKPTETLTLTCTVSGIDLSHDDISWVRQAPGKGLEWVGIISYAGSTYYASWAKGRLTISKDTSKNQVVLTMTNMDPVDTATYYCARGVPAYSHGGDLWGQGTLVTVSSASTKGPSVFPLAPSSKSTSGGTAALGCLVKDYFPEPVTVSWNSGALTSGVHTFPAVLQSSGLYSLSSVVTVPSSSLGTQTYICNVNHKPSNTKVDKKVEPKSCDKTHTCPPCPAPELLNGPSVFLFPPKPKDTLMISRTPEVTCVVVDVSEEDPEVKFNWYVDGVEVHNAKTKPREEQYNSTYRVVSVLTVLHRDWLNGKEYKCKVSNKALPKPIEKTISKAKGQPREPQVYTLPPSREEMTKNQVSLTCLVKGFYPSDIAVEWESNGQPENNYKTTPMVLKSDGSFFLYSKLTVDKSRWQQGNVFSCSVMHEALHAHYTQKSLSLSP
light: DIVMTQSPATLSLSPGERATLSCTSSQSVYHANWLSWFQQKPGQPPKLLIYWASTLAYGVPSRFSGSGSGTDFTLTISSLQPEDAATYYCAGGYGGGRYAFGQGTKVEIKRTVAAPSVFIFPPSDEQLKSGTASVVCLLNNFYPREAKVQWKVDNALQSGNSQESVTEQDSKDSTYSLSSTLTLSKADYEKHKVYACEVTHQGLSSPVTKSFNRGEC
notes: Built from the text: Q311R/D399K introduced into SG1012; also called MS1032LO06-SG1016
fold enhanced affinity compared to SG1 [1]: 10 fold

B4: M103205H795-MY454/M103202L889-SK1 (antibody, human IgG1, kappa)
heavy: QVTLKESGPVLVKPTETLTLTCTVSGIDLSHDDISWVRQAPGKGLEWVGIISYAGSTYYASWAKGRLTISKDTSKNQVVLTMTNMDPVDTATYYCARGVPAYSHGGDLWGQGTLVTVSSASTKGPSVFPLAPSSKSTSGGTAALGCLVKDYFPEPVTVSWNSGALTSGVHTFPAVLQSSGLYSLSSVVTVPSSSLGTQTYICNVNHKPSNTKVDKKVEPKSCDKTHTCPPCPASELLTGPSVFLFPPKPKDTLMISRTPEVTCVVVDVSDEDPEVKFNWYVDGVEVHNAKTKPREEQYNSTYRVVSVLTVLHQDWLNGKEYKCKVSNKALPKPIEKTISKAKGQPREPQVYTLPPSREEMTKNQVSLTCLVKGFYPSDIAVEWESNGQPENNYKTTPPVLDSDGSFFLYSKLTVDKSRWQQGNVFSCSVMHEALHNHYTQKSLSLSP
light: DIVMTQSPATLSLSPGERATLSCTSSQSVYHANWLSWFQQKPGQPPKLLIYWASTLAYGVPSRFSGSGSGTDFTLTISSLQPEDAATYYCAGGYGGGRYAFGQGTKVEIKRTVAAPSVFIFPPSDEQLKSGTASVVCLLNNFYPREAKVQWKVDNALQSGNSQESVTEQDSKDSTYSLSSTLTLSKADYEKHKVYACEVTHQGLSSPVTKSFNRGEC
notes: Substitutions in EU numbering on SG1
KD fold (SG1 = 1) [2]: 1.8 fold
KD fold (SG1 = 1) [3]: 2.2 fold
Kd [4]: 2800 nM

B5: M103205H795-MY458/M103202L889-SK1 (antibody, human IgG1, kappa)
heavy: QVTLKESGPVLVKPTETLTLTCTVSGIDLSHDDISWVRQAPGKGLEWVGIISYAGSTYYASWAKGRLTISKDTSKNQVVLTMTNMDPVDTATYYCARGVPAYSHGGDLWGQGTLVTVSSASTKGPSVFPLAPSSKSTSGGTAALGCLVKDYFPEPVTVSWNSGALTSGVHTFPAVLQSSGLYSLSSVVTVPSSSLGTQTYICNVNHKPSNTKVDKKVEPKSCDKTHTCPPCPAYELLTGPSVFLFPPKPKDTLMISRTPEVTCVVVDVSDEDPEVKFNWYVDGVEVHNAKTKPREEQYNSTYRVVSVLTVLHQDWLNGKEYKCKVSNKALPKPIEKTISKAKGQPREPQVYTLPPSREEMTKNQVSLTCLVKGFYPSDIAVEWESNGQPENNYKTTPPVLDSDGSFFLYSKLTVDKSRWQQGNVFSCSVMHEALHNHYTQKSLSLSP
light: DIVMTQSPATLSLSPGERATLSCTSSQSVYHANWLSWFQQKPGQPPKLLIYWASTLAYGVPSRFSGSGSGTDFTLTISSLQPEDAATYYCAGGYGGGRYAFGQGTKVEIKRTVAAPSVFIFPPSDEQLKSGTASVVCLLNNFYPREAKVQWKVDNALQSGNSQESVTEQDSKDSTYSLSSTLTLSKADYEKHKVYACEVTHQGLSSPVTKSFNRGEC
notes: as for B4
Kd [4]: 1900 nM

B6: MS103240H795-SG1080/M103202L1045-SK1 (antibody, name in EU numbering)
heavy: QVQLVESGGGLVQPGGSLRLSCAVSGIDLSHDDISWVRQAPGKGLEWVSIISYAGSTYYASWAKGRLTISKDTSKNQVVLTMTNMDPVDTATYYCARGVPAYSHGGDLWGQGTLVTVSSASTKGPSVFPLAPSSKSTSGGTAALGCLVKDYFPEPVTVSWNSGALTSGVHTFPAVLQSSGLYSLSSVVTVPSSSLGTQTYICNVNHKPSNTKVDKKVEPKSCDKTHTCPPCPAPELLNGPSVFLFPPKPKDTLMISRTPEVTCVVVDVSDEDPEVKFNWYVDGVEVHNAKTKPREELYNSTYRVVSVLTVLHRDWLNGKEYKCKVSNTALPKPIEKTISKAKGQRREPQVYTLPPSREEMTKNQVSLTCLVKGFYPSDIAVEWESNGQPENNYKTTPPVLDSDGSFFLYSKLTVDKSRWQQGNVFSCSVMHEALHAHYTRKELSLSP
light: DIVMTQSPATLSLSPGERATLSCTTSQSVYHENWLSWFQQKPGQPPKLLIYWASTLAYGVPSRFSGSGSGTDFTLTISSLQPEDAATYYCAGGYGGGRYAFGQGTKVEIKRTVAAPSVFIFPPSDEQLKSGTASVVCLLNNFYPREAKVQWKVDNALQSGNSQESVTEQDSKDSTYSLSSTLTLSKADYEKHKVYACEVTHQGLSSPVTKSFNRGEC
notes: Built from the text: MY209 plus Q311R/P343R and N434A/Q438R/S440E; also called MS1032LO19-SG1080
fold enhanced affinity compared to SG1 [1]: 10 fold
